Consider one substance from article PMC4468861.

This experiment addresses N-terminally GST-tagged M. jannaschii SR(aa93-408) (M. jannaschii) (UniProt Q57739).
Sequence of UniProt Q57739 (Q57739 93-408): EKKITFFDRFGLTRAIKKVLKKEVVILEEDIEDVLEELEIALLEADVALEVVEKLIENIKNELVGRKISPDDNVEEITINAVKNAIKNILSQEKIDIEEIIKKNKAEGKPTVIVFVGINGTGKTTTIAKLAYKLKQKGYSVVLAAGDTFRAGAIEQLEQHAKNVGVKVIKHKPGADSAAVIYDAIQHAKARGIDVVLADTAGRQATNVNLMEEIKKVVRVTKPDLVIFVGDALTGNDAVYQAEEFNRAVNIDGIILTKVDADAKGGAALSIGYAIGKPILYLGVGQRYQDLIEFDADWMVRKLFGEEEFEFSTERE

In the case of “M. jannaschii SRP core complex containing fl-SRP54-ss, SRP19 and SRP RNA (from UniProt Q57565 1-451; Q58440 1-87)”, the GTPase rate of the SRP-SR complex in multiple turnover reactions (0.5 uM SRP, SR 0-25 uM, 25 °C), against SRP complexes containing SRP54-ss as the text prints (fl-SRP54 by the legend of Fig. 1b) stood at 20 fold.
